The target in one test is T1, scleroderma 70 antigen (UniProt P11387 2-765).
T1 construct: Commercial bead antigen; also called Scl 70; Sc1 70
T1 sequence: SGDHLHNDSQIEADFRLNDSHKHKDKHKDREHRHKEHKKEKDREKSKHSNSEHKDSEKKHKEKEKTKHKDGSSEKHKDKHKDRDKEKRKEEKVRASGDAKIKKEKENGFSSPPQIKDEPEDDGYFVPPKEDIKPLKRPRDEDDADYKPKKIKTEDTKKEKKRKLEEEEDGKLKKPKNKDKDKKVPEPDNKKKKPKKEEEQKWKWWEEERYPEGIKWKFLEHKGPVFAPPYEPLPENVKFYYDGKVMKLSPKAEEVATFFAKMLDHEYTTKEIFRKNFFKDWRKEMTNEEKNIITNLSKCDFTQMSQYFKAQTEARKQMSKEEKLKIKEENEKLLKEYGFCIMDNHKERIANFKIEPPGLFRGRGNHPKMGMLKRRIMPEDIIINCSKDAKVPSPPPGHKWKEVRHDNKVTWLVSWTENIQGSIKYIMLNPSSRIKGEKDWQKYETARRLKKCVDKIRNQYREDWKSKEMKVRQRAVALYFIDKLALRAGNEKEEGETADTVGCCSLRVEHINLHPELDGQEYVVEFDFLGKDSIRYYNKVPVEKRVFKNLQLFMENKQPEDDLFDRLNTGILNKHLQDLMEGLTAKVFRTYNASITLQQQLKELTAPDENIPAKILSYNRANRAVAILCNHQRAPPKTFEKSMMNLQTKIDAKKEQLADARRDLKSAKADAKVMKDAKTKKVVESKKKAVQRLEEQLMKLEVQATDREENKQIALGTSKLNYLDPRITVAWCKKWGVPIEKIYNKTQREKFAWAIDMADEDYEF
The test can be described thus: Luminex AtheNA Multi-Lyte ANA bead assay.

The target of test [1] is T2, Sjogren's syndrome antigen B (UniProt P05455 1-408).
T2 construct: Commercial bead antigen; also called SSB; SS-B/La
T2 sequence: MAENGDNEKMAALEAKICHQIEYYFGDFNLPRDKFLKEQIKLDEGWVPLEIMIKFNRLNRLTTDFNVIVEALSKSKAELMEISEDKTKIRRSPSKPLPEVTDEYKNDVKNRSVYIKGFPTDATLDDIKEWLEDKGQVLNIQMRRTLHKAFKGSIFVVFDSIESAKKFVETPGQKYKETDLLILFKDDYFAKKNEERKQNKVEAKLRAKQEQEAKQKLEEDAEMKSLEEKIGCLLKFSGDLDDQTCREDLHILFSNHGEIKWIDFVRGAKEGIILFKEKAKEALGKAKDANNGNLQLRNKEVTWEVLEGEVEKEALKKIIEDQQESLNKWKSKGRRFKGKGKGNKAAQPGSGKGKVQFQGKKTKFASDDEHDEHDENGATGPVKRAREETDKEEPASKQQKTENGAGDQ
Kind of test: Luminex AtheNA Multi-Lyte ANA bead assay.

The target in a further test is T3, Jo1 antigen (UniProt P12081 2-509).
T3 construct: Commercial bead antigen
T3 sequence: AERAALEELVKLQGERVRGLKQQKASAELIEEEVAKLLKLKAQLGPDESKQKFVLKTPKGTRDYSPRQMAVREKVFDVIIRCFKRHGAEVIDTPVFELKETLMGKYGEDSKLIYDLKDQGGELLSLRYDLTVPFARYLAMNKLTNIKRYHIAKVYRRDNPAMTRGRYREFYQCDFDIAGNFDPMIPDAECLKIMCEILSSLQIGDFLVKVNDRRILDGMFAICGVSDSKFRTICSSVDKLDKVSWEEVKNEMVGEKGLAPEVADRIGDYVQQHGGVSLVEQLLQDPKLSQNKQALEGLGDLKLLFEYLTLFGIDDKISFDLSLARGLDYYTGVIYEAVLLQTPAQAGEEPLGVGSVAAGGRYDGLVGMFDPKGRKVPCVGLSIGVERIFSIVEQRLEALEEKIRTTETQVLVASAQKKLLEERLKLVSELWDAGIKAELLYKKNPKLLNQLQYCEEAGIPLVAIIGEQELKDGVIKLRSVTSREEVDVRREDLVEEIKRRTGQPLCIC
Kind of test: Luminex AtheNA Multi-Lyte ANA bead assay.

Another test concerns the target T4, centromere B (UniProt P07199 2-599).
T4 construct: Commercial bead antigen; also called CentrB
T4 sequence: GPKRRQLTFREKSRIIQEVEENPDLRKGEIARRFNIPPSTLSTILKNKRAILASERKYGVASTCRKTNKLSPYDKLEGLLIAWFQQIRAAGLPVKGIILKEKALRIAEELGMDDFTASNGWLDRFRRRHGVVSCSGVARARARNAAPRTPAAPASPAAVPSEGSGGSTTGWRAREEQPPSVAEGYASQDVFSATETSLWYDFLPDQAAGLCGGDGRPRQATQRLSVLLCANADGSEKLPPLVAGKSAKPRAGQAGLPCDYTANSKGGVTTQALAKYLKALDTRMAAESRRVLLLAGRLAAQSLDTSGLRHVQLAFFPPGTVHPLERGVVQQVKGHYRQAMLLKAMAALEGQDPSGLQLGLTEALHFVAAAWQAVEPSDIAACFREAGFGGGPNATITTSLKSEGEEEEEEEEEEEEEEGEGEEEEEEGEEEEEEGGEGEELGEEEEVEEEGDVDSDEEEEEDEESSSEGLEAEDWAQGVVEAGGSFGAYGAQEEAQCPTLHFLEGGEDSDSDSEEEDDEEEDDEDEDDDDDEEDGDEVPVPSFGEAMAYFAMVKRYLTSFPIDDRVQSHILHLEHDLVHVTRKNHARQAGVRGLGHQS
The test can be described thus: Luminex AtheNA Multi-Lyte ANA bead assay.

For test [2], the target named is full MPER peptide (ELISA; gp41 residues 656-683 with lysine triplicates) (HIV-1). The test can be described thus: ELISA, peptide coated at 2 ug/ml.
For test [3], the target named is Z13e1-specific peptide (gp41 residues 666-677) (HIV-1). Kind of test: ELISA, peptide coated at 2 ug/ml.
The target in test [4] is 4E10-specific MPER peptide (gp41 residues 671-683) (HIV-1). The test can be described thus: ELISA, peptide coated at 2 ug/ml.

B1: 10E8 monoclonal antibody (full-length IgG) (antibody, V domains shown)
VH: EVQLVESGGGLVKPGGSLRLSCSASGFDFDNAWMTWVRQPPGKGLEWVGRITGPGEGWSVDYAAPVEGRFTISRLNSINFLYLEMNNLRMEDSGLYFCARTGKYYDFWSGYPPGEEYFQDWGRGTLVTVSS
VL: SYELTQETGVSVALGRTVTITCRGDSLRSHYASWYQKKPGQAPILLFYGKNNRPSGVPDRFSGSASGNRASLTISGAQAEDDAEYYCSSRDKSGSRLSVFGGGTKLTVL
notes: also called mAb 10E8; wild-type 10E8
As to B1, the binding result is “no binding (tested: 50 ug/ml (highest concentration assayed))” with scleroderma 70 antigen; “no binding (tested: 50 ug/ml (highest concentration assayed))” in test [1]; “no binding (tested: 50 ug/ml (highest concentration assayed))” with Jo1 antigen; “no binding (tested: 50 ug/ml (highest concentration assayed))” with centromere B; “binds” in test [2]; “no binding” in test [3]. Also, the binding result in test [4] was “binds”.

(Values after patent US20140348785A1 (US Dept. of Health and Human Services, published 2014).)
